# Key:
# [1] = biological target: T1, JRFL gp120 monomer expressed in HEK 293S cells (HIV-1 clade B, isolate JR-FL, UniProt Q75760, strain); assay: ITC; settings: both partners purified
# T1 construct: also called gp120 with immature oligomannose glycans
# soluble CD4 = biological target: T2, soluble CD4 (UniProt P01730); assay: ITC; settings: both partners purified
# T2 construct: also called sCD4
Binder,binding result [1],Kd (soluble CD4) [µM]
"PGT123 Fab (Fab, V domains shown) VH: QLHLQESGPGLVKPPETLSLTCSVSGASINDAYWSWIRQSPGKRPEWVGYVHHSGDTNYNPSLKRRVTFSLDTAKNEVSLKLVDLTAADSATYFCARALHGKRIYGIVALGELFTYFYMDVWGKGTAVTVSS VL: SSMSVSPGETAKISCGKESIGSRAVQWYQQKPGQPPSLIIYNNQDRPAGVPERFSASPDFRPGTTATLTITNVDAEDEADYYCHIYDARGGTNWVFDRGTTLTVL",binds,–
"PGT121 Fab (Fab, V domains shown) VH: QMQLQESGPGLVKPSETLSLTCSVSGASISDSYWSWIRRSPGKGLEWIGYVHKSGDTNYSPSLKSRVNLSLDTSKNQVSLSLVAATAADSGKYYCARTLHGRRIYGIVAFNEWFTYFYMDVWGNGTQVTVSS VL: DISVAPGETARISCGEKSLGSRAVQWYQHRAGQAPSLIIYNNQDRPSGIPERFSGSPDSPFGTTATLTITSVEAGDEADYYCHIWDSRVPTKWVFGGGTTLTVL",binds,–
"JRFL gp120 monomer (near full-length gp120 monomeric construct) (natural protein, also called monomeric gp120) not shown",–,0.021
"PGT122 Fab (Fab, V domains shown) VH: QVHLQESGPGLVKPSETLSLTCNVSGTLVRDNYWSWIRQPLGKQPEWIGYVHDSGDTNYNPSLKSRVHLSLDKSKNLVSLRLTGVTAADSAIYYCATTKHGRRIYGVVAFKEWFTYFYMDVWGKGTSVTVSS VL: VSVAPGQTARITCGEESLGSRSVIWYQQRPGQAPSLIIYNNNDRPSGIPDRFSGSPGSTFGTTATLTITSVEAGDEADYYCHIWDSRRPTNWVFGEGTTLIVL",binds,–

# Reference: PMC3642082 (PLoS Pathogens, 2013)
